This note sets out measurements from patent publication US20230212258A1 (MCMASTER UNIVERSITY, published 2023).

Residue numbers refer to the chain shown, from its start. Numbers in names are those of the source.

Assay [1] has as its target Lck (UniProt P06239 2-509, limits assumed). Briefly: pull-down from 293TM lysates on Her2 antigen beads, western blot for Lck. The method, then:
In FIG. 13A, Her2 antigen was covalently attached to magnetic beads. […] Beads were incubated with cell lysates over night and subsequently washed and western blotted. Lck was detected using an Lck antibody, TACs were detected via Myc antibody. […] Signal was corrected relative to the negative control.

The target in assay [2] is T1, Her2Fc (UniProt P04626 23-652, limits assumed).
T1 construct: It is printed both as Her2Fc and as FcHer2; also called FcHer2; FcHer2 antigen; not shown: Fc part
Briefly: flow cytometry, transduced T cells incubated with Her2Fc (FIG. 2). The method, then:
T-cells had been incubated with Her2Fc, which later was detected via flow cytometry. The presented data was gated on CD8+ lymphocytes. The shown gates were chosen based on the untransduced control.

In assay [3] the target is T1, Her2Fc. Briefly: flow cytometry, engineered PBMC, NGFR marker and FcHer2 (FIG. 16B).

Lck, sequence (P06239 2-509 limits assumed): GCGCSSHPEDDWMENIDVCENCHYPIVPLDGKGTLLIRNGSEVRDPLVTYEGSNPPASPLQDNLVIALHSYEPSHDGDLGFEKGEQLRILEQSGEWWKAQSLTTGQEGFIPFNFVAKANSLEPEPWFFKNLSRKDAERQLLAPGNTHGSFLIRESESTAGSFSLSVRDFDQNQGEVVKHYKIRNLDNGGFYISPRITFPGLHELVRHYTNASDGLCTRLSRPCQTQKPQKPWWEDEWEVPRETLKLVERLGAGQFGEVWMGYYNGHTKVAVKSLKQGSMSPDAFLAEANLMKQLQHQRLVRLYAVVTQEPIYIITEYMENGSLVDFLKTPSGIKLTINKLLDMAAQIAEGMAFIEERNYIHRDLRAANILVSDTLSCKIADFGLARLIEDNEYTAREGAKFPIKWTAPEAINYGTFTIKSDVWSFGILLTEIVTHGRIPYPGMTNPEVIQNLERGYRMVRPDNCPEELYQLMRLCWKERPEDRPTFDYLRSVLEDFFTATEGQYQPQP

B1: CD4 TAC -cytosol (receptor)
chain: MSRGSDLGKKLLEAARAGQDDEVRILMANGADVNAKDEYGLTPLYLATAHGHLEIVEVLLKNGADVNAVDAIGFTPLHLAAFIGHLEIAEVLLKHGADVNAQDKFGKTAFDISIGNGNEDLAEILQKLNEQKLISEEDLNPGGGGGSGGGGSGGGGSGGGGSGSMDIQMTQTTSSLSASLGDRVTISCRASQDIRNYLNWYQQKPDGTVKLLIYYTSRLHSGVPSKFSGSGSGTDYSLTISNLEQEDIATYFCQQGNTLPWTFAGGTKLEIKGGGGSGGGGSGGGGSGGGGSEVQLQQSGPELVKPGASMKISCKASGYSFTGYTMNWVKQSHGKNLEWMGLINPYKGVSTYNQKFKDKATLTVDKSSSTAYMELLSLTSEDSAVYYCARSGYYGDSDWYFDVWGQGTTLTVFSTSGGGGSLESGQVLLESNIKVLPTWSTPVQPMALIVLGGVAGLLLFIGLGIFF
notes: It was detected through its Myc tag in the pull-down; also called TAC cytosolic deletion variant; cytosolic deletion
On to B1, for which, in assay [1], the binding result is recorded as “no binding”.

B2: N-Darpin Tri-TAC (receptor)
chain: MSRGSDLGKKLLEAARAGQDDEVRILMANGADVNAKDEYGLTPLYLATAHGHLEIVEVLLKNGADVNAVDAIGFTPLHLAAFIGHLEIAEVLLKHGADVNAQDKFGKTAFDISIGNGNEDLAEILQKLNEQKLISEEDLNPGGGGGSGGGGSGGGGSGGGGSGSMDIQMTQTTSSLSASLGDRVTISCRASQDIRNYLNWYQQKPDGTVKLLIYYTSRLHSGVPSKFSGSGSGTDYSLTISNLEQEDIATYFCQQGNTLPWTFAGGTKLEIKGGGGSGGGGSGGGGSGGGGSEVQLQQSGPELVKPGASMKISCKASGYSFTGYTMNWVKQSHGKNLEWMGLINPYKGVSTYNQKFKDKATLTVDKSSSTAYMELLSLTSEDSAVYYCARSGYYGDSDWYFDVWGQGTTLTVFSTSGGGGSLESGQVLLESNIKVLPTWSTPVQPMALIVLGGVAGLLLFIGLGIFFCVRCRHRRRQAERMSQIKRLLSEKKTCQCPHRFQKTCSPI
notes: Chimeric receptor expressed on engineered human T cells (in 293TM cells for the pull-down); also called full length CD4-TAC
Turning to B2, the binding result in assay [2] is on record as “binds”.

B3: CD4 TAC A85V, T161P mutant (receptor)
chain: B2 chain with A249V, T325P
notes: CD4 TAC with the mutated UCHT1 domain; also called UCHT1 (A85V, T161P)
For the molecule B3, in assay [3], the binding result was “binds”.
